Reference: article PMC5906591

Biological target: HigA2Ab-His antitoxin (C-terminal His-tag fusion, from pET-HigBA-His) (Acinetobacter baumannii)
Test: SEC

Work on “HigB2Ab toxin, untagged (co-expressed from pET-HigBA-His or pET-HigB-His6-TEV-HigA)” yielded a stoichiometry N (toxin:antitoxin) of 1.
